Measured values taken from US5679770A, “Polypeptide, DNA fragment encoding the same, drug composition containing the same and process for producing the same” (Mochida Pharmaceutical Co., Ltd., priority 1991, dated 1997).

T1: Bovine trypsin (Bos taurus, UniProt P00760)
T1 construct: purchased Sigma Chemical Co. Type XIII
T1 sequence (P00760 24-246): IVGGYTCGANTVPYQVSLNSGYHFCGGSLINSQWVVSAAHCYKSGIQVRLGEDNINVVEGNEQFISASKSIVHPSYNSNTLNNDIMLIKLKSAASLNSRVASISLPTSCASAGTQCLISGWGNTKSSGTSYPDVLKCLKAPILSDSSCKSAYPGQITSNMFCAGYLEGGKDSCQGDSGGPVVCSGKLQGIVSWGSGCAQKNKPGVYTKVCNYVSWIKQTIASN


Legend:
human trypsin = target: T2, human trypsin (Homo sapiens, UniProt P07477); test: Human trypsin-inhibiting activity (synthetic substrate S-2444); assay type: biochemical; conditions: purified polypeptide, various concentration levels
T2 construct: purchased Calbiochem
Experimental: The purified polypeptide of the present invention was dissolved in 100 μl of distilled water. Concentration of polypeptide in the thus prepared solution was determined based on its bovine trypsin-inhibiting activity measured in accordance with the above procedure (1) using UTI (Mochida Pharmaceutical Co., Ltd.; cf. H. Ohnishi et al., Nippon Yakurigaku Zasshi, vol.85, pp.1-6, 1985) as a standard. The polypeptide solution was then diluted to various concentration levels with 0.03% BSA/0.2M triethanolamine-HCl buffer (pH 7.8) for use in the activity measurement. Separately from this, human trypsin (Calbiochem) was dissolved in 1 mM HCl to a concentration of 1,000 SU/ml and the solution was further diluted with the 0.03% BSA/0.2M triethanolamine-HCl buffer (pH 7.8) to prepare a 1.25 SU/ml solution of human trypsin. Thereafter, human trypsin-inhibiting activity was measured in the same manner as described in the above procedure (1) using the aforementioned synthetic substrate S-2444. Separately from this, polypeptide AN68 (sequence described in Example 17(3)) was diluted to various concentration levels. Thereafter, human trypsin-inhibiting activity was measured in the same manner as described in the above procedure (1) and compared with the trypsin-inhibiting activity of the novel polypeptide of the present invention.

Bovine trypsin = target: T1, Bovine trypsin; test: Bovine trypsin-inhibiting activity (synthetic substrate S-2444); assay type: biochemical; conditions: purified polypeptide, serially diluted
Experimental: The purified polypeptide of the present invention was dissolved in 100 μl of distilled water, and the solution was serially diluted with a 0.1% BSA/0.2M triethanolamine-HCl buffer (pH 7.8) for use in the activity measurement. Measurement of the trypsin-inhibiting activity in the thus prepared test sample was carried out in accordance with the Kassell's method (Kassell, B. et al., Methods in Enzymology, vol.19, pp.844-852, 1970) using a synthetic substrate S-2444 (Daiichi Pure Chemicals Co., Ltd.).
Bovine trypsin (Type XIII, Sigma Chemical Co.) was dissolved in 0.001M HCl to a final concentration of 13,600 BAEEU/ml and the solution was further diluted with 0.1% BSA/0.2M triethanolamine-HCl buffer (pH 7.8) to prepare 1.2 BAEEU/ml of trypsin solution. Separately from this, 2 mM solution of the synthetic substrate S-2444 was prepared by dissolving it in distilled water. Next, 100 μl of the test sample was mixed with 100 μl of the trypsin solution. After incubating statically at 37° C. for 10 minutes, 50 μl of the S-2444 solution was added to start the reaction. The reaction was carried out at 37° C. for 15 minutes and then stopped by adding 50 μl of 50% acetic acid solution to the reaction mixture. Thereafter, absorbance at a wavelength of 405 nm was measured using a spectrophotometer. In this instance, in order to eliminate absorbancy of various contents in the reaction mixture other than the reaction product, a blank solution was prepared by mixing 100 μl of the bovine trypsin solution with 50 μl of 50% acetic acid and then with 100 μl of each test sample and 50 μl of the S-2444 solution.

| Molecule | human trypsin inhibition (human trypsin) | bovine trypsin inhibition (Bovine trypsin) |
| --- | --- | --- |
| R11Q/Q19K/Y46D: formula 1 sequence with Gln for position 7 Arg, Lys for position 15 Gln, Asp for position 42 Tyr; SEQ. I.D. NO. 37 (protein) AACNLPIVQGPCRAFIKLWAFDAVKGKCVLFPYGGCQGNGNKFDSEKECREYCGVPGDGDEELLRFSN | can inhibit human trypsin in a concentration-dependent manner | can inhibit bovine trypsin in a concentration-dependent manner |
| R11D/Q19K/Y46D: formula 1 sequence with Asp for position 7 Arg, Lys for position 15 Gln, Asp for position 42 Tyr; SEQ. I.D. NO. 38 (protein) AACNLPIVDGPCRAFIKLWAFDAVKGKCVLFPYGGCQGNGNKFDSEKECREYCGVPGDGDEELLRFSN | can inhibit human trypsin in a concentration-dependent manner | can inhibit bovine trypsin in a concentration-dependent manner |
| R11L/Q19K/Y46D: formula 1 sequence with Leu for position 7 Arg, Lys for position 15 Gln, Asp for position 42 Tyr; SEQ. I.D. NO. 39 (protein) AACNLPIVLGPCRAFIKLWAFDAVKGKCVLFPYGGCQGNGNKFDSEKECREYCGVPGDGDEELLRFSN | can inhibit human trypsin in a concentration-dependent manner | can inhibit bovine trypsin in a concentration-dependent manner |
| R11E/Q19K/Y46E: formula 1 sequence with Glu for position 7 Arg, Lys for position 15 Gln, Glu for position 42 Tyr; SEQ. I.D. NO. 40 (protein) AACNLPIVEGPCRAFIKLWAFDAVKGKCVLFPYGGCQGNGNKFESEKECREYCGVPGDGDEELLRFSN | can inhibit human trypsin in a concentration-dependent manner | can inhibit bovine trypsin in a concentration-dependent manner |
| R11N/Q19K/Y46D: formula 1 sequence with Asn for position 7 Arg, Lys for position 15 Gln, Asp for position 42 Tyr; SEQ. I.D. NO. 41 (protein) AACNLPIVNGPCRAFIKLWAFDAVKGKCVLFPYGGCQGNGNKFDSEKECREYCGVPGDGDEELLRFSN | can inhibit human trypsin in a concentration-dependent manner | can inhibit bovine trypsin in a concentration-dependent manner |
| R11S/Q19K/Y46D: formula 1 sequence with Ser for position 7 Arg, Lys for position 15 Gln, Asp for position 42 Tyr; SEQ. I.D. NO. 42 (protein) AACNLPIVSGPCRAFIKLWAFDAVKGKCVLFPYGGCQGNGNKFDSEKECREYCGVPGDGDEELLRFSN | can inhibit human trypsin in a concentration-dependent manner | can inhibit bovine trypsin in a concentration-dependent manner |
| R11A/Q19K/Y46D: formula 1 sequence with Ala for position 7 Arg, Lys for position 15 Gln, Asp for position 42 Tyr; SEQ. I.D. NO. 43 (protein) AACNLPIVAGPCRAFIKLWAFDAVKGKCVLFPYGGCQGNGNKFDSEKECREYCGVPGDGDEELLRFSN | can inhibit human trypsin in a concentration-dependent manner | can inhibit bovine trypsin in a concentration-dependent manner |
